From patent US20230265151A1, “GIP/GLP1 CO-AGONIST COMPOUNDS” (priority 2020, published 2023)
Changes are numbered by the printed parent chain.

B1: Example 207 (peptide)
peptide: YXEGTXTSDXSIXLDXKAQXKFIXXLIEGGPSSGAPPPS
modifications: Aib2, αMeF(2F)6, 4Pal10, αMeL13, Orn16, K17(Z), Aib20, K21(Z), D-Glu24, αMeY25, C-terminal NH2; Z = AEEA-(γ-Glu)-(4-(4-tert-butylphenyl)butanoyl)
B2: Y-Aib-EGT-αMeF(2F)-TSD-4Pal-SI-αMeL-LD-Orn-IAQ-Aib-EFIK((2-[2-(2-Amino-ethoxy)-ethoxy]-acetyl)2-(γ-Glu)-CO-(CH2)12-CO2H)-αMeY-LIEGGK((2-[2-(2-Amino-ethoxy)-etho … (peptide)
peptide: B1 peptide with K17I, K21E, X24K, P31K
modifications: Aib2, αMeF(2F)6, 4Pal10, αMeL13, Orn16, Aib20, αMeY25; acylated K24, K31 (groups as in name); C-terminal amide
B3: Example 211 (peptide)
peptide: B1 peptide with S11X, K21E, P31K
modifications: Aib2, αMeF(2F)6, 4Pal10, Ac5c11, αMeL13, Orn16, K17(Z), Aib20, D-Glu24, αMeY25, K31(Z), C-terminal NH2; Z = AEEA2-(γ-Glu)-CO-(CH2)12-CO2H
B4: Example 213 (peptide)
peptide: B1 peptide with S11X, K21E, P31K
modifications: Aib2, αMeF(2F)6, 4Pal10, αMeS11, αMeL13, Orn16, K17(Z), Aib20, D-Glu24, αMeY25, K31(Z), C-terminal NH2; Z = AEEA2-(γ-Glu)-CO-(CH2)12-CO2H
B5: Y-Aib-EGT-αMeF(2F)-TSD-4Pal-SI-αMeL-LD-Orn-IAQ-Aib-K((2-[2-(2-Amino-ethoxy)-ethoxy]-acetyl)2-CO-(CH2)12-CO2H)FI-(D-Glu)-αMeY-LIEGGK((2-[2-(2-Amino-ethoxy)-ethox … (peptide)
peptide: B1 peptide with K17I, P31K
modifications: Aib2, αMeF(2F)6, 4Pal10, αMeL13, Orn16, Aib20, D-Glu24, αMeY25; acylated K21, K31 (groups as in name); C-terminal amide
B6: Example 202 (peptide)
peptide: B1 peptide with S11X, K21E, P31K
modifications: Aib2, αMeF(2F)6, 4Pal10, Tle11, αMeL13, Orn16, K17(Z), Aib20, D-Glu24, αMeY25, K31(Z), C-terminal NH2; Z = AEEA2-(γ-Glu)-CO-(CH2)12-CO2H
B7: Y-Aib-EGT-αMeF(2F)-TSD-4Pal-SI-αMeL-LD-Orn-IAQ-Aib-K((2-[2-(2-Amino-ethoxy)-ethoxy]-acetyl)2-(γ-Glu)-CO-(CH2)12-CO2H)FI-(D-Glu)-αMeY-LIEGGK((2-[2-(2-Amino-ethox … (peptide)
peptide: B1 peptide with K17I, P31K
modifications: Aib2, αMeF(2F)6, 4Pal10, αMeL13, Orn16, Aib20, D-Glu24, αMeY25; acylated K21, K31 (groups as in name); C-terminal amide
B8: Example 249 (peptide)
peptide: B1 peptide
modifications: Aib2, αMeF(2F)6, 2Nal10, αMeL13, Orn16, K17(Z), Aib20, K21(Z), D-Glu24, αMeY25, C-terminal NH2; Z = AEEA2-(γ-Glu)-CO-(CH2)12-CO2H
B9: Y-Aib-EGT-αMeF(2F)-TSD-4Pal-SI-αMeL-LD-Orn-IAQ-Aib-EFIK((εK)-(γ-Glu)-CO-(CH2)12-CO2H)-αMeY-LIEGGK((εK)-(γ-Glu)-CO-(CH2)12-CO2H)SSGAPPPS-NH2 (peptide)
peptide: B1 peptide with K17I, K21E, X24K, P31K
modifications: Aib2, αMeF(2F)6, 4Pal10, αMeL13, Orn16, Aib20, αMeY25; acylated K24, K31 (groups as in name); C-terminal amide
B10: Y-Aib-EGT-αMeF-TSD-4Pal-SI-αMeL-LD-Orn-K((2-[2-(2-Amino-ethoxy)-ethoxy]-acetyl)2-(γ-Glu)-CO-(CH2)10-CH3)AQ-Aib-E-αMeF-I-(D-Glu)-αMeY-LIEGGK((2-[2-(2-Amino-ethox … (peptide)
peptide: B1 peptide with K21E, F22X, P31K
modifications: Aib2, αMeF6, 4Pal10, αMeL13, Orn16, Aib20, αMeF22, D-Glu24, αMeY25; acylated K17, K31 (groups as in name); C-terminal amide

Key:
Test in all cases: cell-based or functional assay
[1] = biological target: T1, human glucose-dependent insulinotropic polypeptide (GIP) receptor (human, UniProt P48546 22-466)
T1 sequence (looked up): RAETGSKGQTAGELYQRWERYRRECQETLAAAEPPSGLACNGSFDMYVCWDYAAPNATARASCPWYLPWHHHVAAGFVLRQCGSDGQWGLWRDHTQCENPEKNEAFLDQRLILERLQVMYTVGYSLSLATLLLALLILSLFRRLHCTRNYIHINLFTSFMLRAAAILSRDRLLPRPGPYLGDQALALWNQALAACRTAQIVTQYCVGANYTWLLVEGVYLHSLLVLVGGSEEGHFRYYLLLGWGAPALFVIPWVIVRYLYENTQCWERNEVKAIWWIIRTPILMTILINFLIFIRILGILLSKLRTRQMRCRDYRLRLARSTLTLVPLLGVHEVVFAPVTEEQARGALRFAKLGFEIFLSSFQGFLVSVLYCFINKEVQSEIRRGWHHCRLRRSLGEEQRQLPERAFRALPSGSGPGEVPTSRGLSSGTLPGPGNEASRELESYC

[2] = biological target: human glucagon-like peptide-1 (GLP-1) receptor (human, UniProt P43220 24-463)
human glucagon receptor [3] = biological target: human glucagon receptor (human, UniProt P47871 26-477)
human GIP receptor = biological target: T2, human GIP receptor (human, UniProt P48546 22-466)
T2 sequence (looked up): T1 sequence (looked up)

human glucagon receptor [4] = biological target: human glucagon receptor (human, UniProt P47871 26-477); remark: listed apart in the source

Binder | cAMP EC50 [1] [nM] | cAMP EC50 [2] [nM] | cAMP EC50 (human glucagon receptor [3]) [µM] | cAMP EC50 (1.0% HSA) (human GIP receptor) [nM] | cAMP EC50 (1.0% HSA) (human glucagon receptor [4]) [µM] | cAMP Emax [1] [%] | cAMP Emax [2] [%]
B1 | 0.019 | 0.209 | > 9.95 | – | – | – | –
B2 | – | – | – | 3.07 | > 9.95 | – | –
B3 | 0.0465 | 3.55 | > 9.95 | – | – | 91.6 | 93.1
B4 | 0.0275 | 2.14 | > 9.95 | – | – | 92 | 94.8
B5 | – | – | – | 0.771 | > 9.95 | – | –
B6 | 0.057 | 0.944 | > 9.95 | – | – | 86 | 92.2
B7 | – | – | – | 2.19 | > 9.95 | – | –
B8 | 0.0201 | 0.3 | > 9.95 | – | – | – | –
B9 | – | – | – | 2.06 | > 9.95 | – | –
B10 | – | – | – | 1.24 | > 9.95 | – | –
